Measured values as given in paper PMC10786891, “Massively parallel profiling of RNA-targeting CRISPR-Cas13d”.
Residue numbers refer to the chain shown, from its start.

T1: EsCas13d, nuclease-dead (Eubacterium siraeum, UniProt B0MS50, R295A;H300A;R849A;H854A)
T1 sequence: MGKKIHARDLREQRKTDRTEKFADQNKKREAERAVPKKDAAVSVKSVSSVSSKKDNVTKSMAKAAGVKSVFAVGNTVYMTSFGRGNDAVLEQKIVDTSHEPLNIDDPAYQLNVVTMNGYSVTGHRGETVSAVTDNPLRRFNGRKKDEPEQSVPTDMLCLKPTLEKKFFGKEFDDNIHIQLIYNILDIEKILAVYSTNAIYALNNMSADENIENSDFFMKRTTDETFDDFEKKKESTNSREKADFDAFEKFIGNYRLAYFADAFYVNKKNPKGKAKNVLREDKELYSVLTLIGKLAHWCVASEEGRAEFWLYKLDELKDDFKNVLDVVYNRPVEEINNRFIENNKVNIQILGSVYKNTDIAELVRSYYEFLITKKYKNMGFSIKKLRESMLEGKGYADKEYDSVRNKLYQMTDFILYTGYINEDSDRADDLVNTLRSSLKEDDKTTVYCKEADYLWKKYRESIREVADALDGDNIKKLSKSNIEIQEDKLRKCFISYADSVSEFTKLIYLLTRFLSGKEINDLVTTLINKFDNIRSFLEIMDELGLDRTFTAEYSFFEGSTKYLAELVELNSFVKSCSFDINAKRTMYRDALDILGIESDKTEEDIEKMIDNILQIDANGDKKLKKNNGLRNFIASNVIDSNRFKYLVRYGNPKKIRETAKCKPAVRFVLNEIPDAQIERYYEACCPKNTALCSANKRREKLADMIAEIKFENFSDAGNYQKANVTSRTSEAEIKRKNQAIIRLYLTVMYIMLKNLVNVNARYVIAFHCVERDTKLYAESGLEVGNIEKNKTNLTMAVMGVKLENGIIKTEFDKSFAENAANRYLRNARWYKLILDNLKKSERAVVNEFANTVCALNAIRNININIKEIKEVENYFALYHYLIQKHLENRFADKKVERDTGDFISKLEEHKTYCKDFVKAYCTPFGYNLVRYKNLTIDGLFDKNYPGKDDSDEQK

B1: target 2 MT 5'PFS UUA 3'PFS ACC (mixed)
RNA 1: CACCCGUGCAAAAUUGCAGGGGUCUAAAACCUUCUCCAAAUUGUUUCAUCCU
RNA 2: GGGAAUGGAUCCACAUCUACGAAUUCUUAAGGAUGAAACAAUUUGGAGAAGACCAGAUCGGAAGAGCACACGU
B2: target 2 MT 5'PFS GGG 3'PFS AGG (mixed)
RNA 1: B1 RNA 1
RNA 2: B1 RNA 2 with U27G, U28G, A29G, C53G, C54G
B3: target 2 MT 5'PFS GAC 3'PFS CCG (mixed)
RNA 1: B1 RNA 1
RNA 2: B1 RNA 2 with U27G, U28A, A29C, A52C, C54G
B4: target 2 MT 5'PFS GGG 3'PFS CGC (mixed)
RNA 1: B1 RNA 1
RNA 2: B1 RNA 2 with U27G, U28G, A29G, A52C, C53G
B5: target 2 MT 5'PFS UUA 3'PFS ACA (mixed)
RNA 1: B1 RNA 1
RNA 2: B1 RNA 2 with C54A
B6: target 2 MT 5'PFS GCA 3'PFS CUG (mixed)
RNA 1: B1 RNA 1
RNA 2: B1 RNA 2 with U27G, U28C, A52C, C53U, C54G
B7: target 2 MT 5'PFS CAC 3'PFS UUA (mixed)
RNA 1: B1 RNA 1
RNA 2: B1 RNA 2 with U27C, U28A, A29C, A52U, C53U, C54A
B8: target 2 MT 5'PFS GCU 3'PFS UAA (mixed)
RNA 1: B1 RNA 1
RNA 2: B1 RNA 2 with U27G, U28C, A29U, A52U, C53A, C54A
B9: target 2 MT 5'PFS GUG 3'PFS AGU (mixed)
RNA 1: B1 RNA 1
RNA 2: B1 RNA 2 with U27G, A29G, C53G, C54U
B10: target 2 MT 5'PFS UUA 3'PFS ACG (mixed)
RNA 1: B1 RNA 1
RNA 2: B1 RNA 2 with C54G
B11: target 2 MT 5'PFS GUC 3'PFS CUC (mixed)
RNA 1: B1 RNA 1
RNA 2: B1 RNA 2 with U27G, A29C, A52C, C53U
B12: target 2 MT 5'PFS GAU 3'PFS AUU (mixed)
RNA 1: B1 RNA 1
RNA 2: B1 RNA 2 with U27G, U28A, A29U, C53U, C54U
B13: target 2 MT 5'PFS UUA 3'PFS ACU (mixed)
RNA 1: B1 RNA 1
RNA 2: B1 RNA 2 with C54U
B14: target 2 MT 5'PFS GAG 3'PFS CAC (mixed)
RNA 1: B1 RNA 1
RNA 2: B1 RNA 2 with U27G, U28A, A29G, A52C, C53A
B15: target 2 MT 5'PFS ACG 3'PFS AUU (mixed)
RNA 1: B1 RNA 1
RNA 2: B1 RNA 2 with U27A, U28C, A29G, C53U, C54U
B16: target 2 MT 5'PFS GGG 3'PFS AGU (mixed)
RNA 1: B1 RNA 1
RNA 2: B1 RNA 2 with U27G, U28G, A29G, C53G, C54U
B17: target 2 MT 5'PFS GCU 3'PFS UAC (mixed)
RNA 1: B1 RNA 1
RNA 2: B1 RNA 2 with U27G, U28C, A29U, A52U, C53A
B18: target 2 MT 5'PFS GGG 3'PFS CGG (mixed)
RNA 1: B1 RNA 1
RNA 2: B1 RNA 2 with U27G, U28G, A29G, A52C, C53G, C54G
B19: target 2 MT 5'PFS GCA 3'PFS CUA (mixed)
RNA 1: B1 RNA 1
RNA 2: B1 RNA 2 with U27G, U28C, A52C, C53U, C54A
B20: target 2 MT 5'PFS CAC 3'PFS UUC (mixed)
RNA 1: B1 RNA 1
RNA 2: B1 RNA 2 with U27C, U28A, A29C, A52U, C53U
B21: target 2 MT 5'PFS GUG 3'PFS AGC (mixed)
RNA 1: B1 RNA 1
RNA 2: B1 RNA 2 with U27G, A29G, C53G
B22: target 2 MT 5'PFS ACG 3'PFS AUA (mixed)
RNA 1: B1 RNA 1
RNA 2: B1 RNA 2 with U27A, U28C, A29G, C53U, C54A
B23: target 2 MT 5'PFS GGG 3'PFS CGU (mixed)
RNA 1: B1 RNA 1
RNA 2: B1 RNA 2 with U27G, U28G, A29G, A52C, C53G, C54U
B24: target 2 MT 5'PFS GGG 3'PFS CGA (mixed)
RNA 1: B1 RNA 1
RNA 2: B1 RNA 2 with U27G, U28G, A29G, A52C, C53G, C54A
B25: target 2 MT 5'PFS GUG 3'PFS AGG (mixed)
RNA 1: B1 RNA 1
RNA 2: B1 RNA 2 with U27G, A29G, C53G, C54G
B26: target 2 MT 5'PFS GUC 3'PFS CUA (mixed)
RNA 1: B1 RNA 1
RNA 2: B1 RNA 2 with U27G, A29C, A52C, C53U, C54A
B27: target 2 MT 5'PFS GGG 3'PFS AGA (mixed)
RNA 1: B1 RNA 1
RNA 2: B1 RNA 2 with U27G, U28G, A29G, C53G, C54A
B28: target 2 MT 5'PFS GAG 3'PFS CAU (mixed)
RNA 1: B1 RNA 1
RNA 2: B1 RNA 2 with U27G, U28A, A29G, A52C, C53A, C54U
B29: target 2 MT 5'PFS GCA 3'PFS CUC (mixed)
RNA 1: B1 RNA 1
RNA 2: B1 RNA 2 with U27G, U28C, A52C, C53U
B30: target 2 MT 5'PFS CAC 3'PFS UUG (mixed)
RNA 1: B1 RNA 1
RNA 2: B1 RNA 2 with U27C, U28A, A29C, A52U, C53U, C54G
B31: target 2 MT 5'PFS GUA 3'PFS CAA (mixed)
RNA 1: B1 RNA 1
RNA 2: B1 RNA 2 with U27G, A52C, C53A, C54A
B32: target 2 MT 5'PFS GAG 3'PFS CAA (mixed)
RNA 1: B1 RNA 1
RNA 2: B1 RNA 2 with U27G, U28A, A29G, A52C, C53A, C54A
B33: target 2 MT 5'PFS GUG 3'PFS AGA (mixed)
RNA 1: B1 RNA 1
RNA 2: B1 RNA 2 with U27G, A29G, C53G, C54A
B34: target 2 MT 5'PFS GAG 3'PFS CAG (mixed)
RNA 1: B1 RNA 1
RNA 2: B1 RNA 2 with U27G, U28A, A29G, A52C, C53A, C54G
B35: target 2 MT 5'PFS GGG 3'PFS AGC (mixed)
RNA 1: B1 RNA 1
RNA 2: B1 RNA 2 with U27G, U28G, A29G, C53G
B36: target 1 insC 3' of 12,insA 3' of 10 (mixed)
RNA 1: CACCCGUGCAAAAAUGCAGGGGUCUAAAACUGAGCGGAUAACCUCUCUAUGG
RNA 2: GGGAAUGGAUCCACAUCUACGAAUUCGUACCAUAGAGAGGCUUAAUCCGCUCACCGAGAUCGGAAGAGCACACGU
B37: target 1 insG 3' of 19,insC 3' of 19 (mixed)
RNA 1: B36 RNA 1
RNA 2: B36 RNA 2 with A34G, G35C, G40A, C41G, U42G, A44U
B38: target 1 insG 3' of 22,insU 3' of 22 (mixed)
RNA 1: B36 RNA 1
RNA 2: B36 RNA 2 with C31G, A32U, U33C, G35U, G40A, C41G, U42G, A44U

Target: T1, EsCas13d, nuclease-dead
Test: crRNA (strand 1, pre-loaded); Mg2+; 40 mM Tris-HCl pH 7.5, 150 mM NaCl, 6 mM MgCl2, 1 mM DTT, 0.1% Tween-20, 0.2 mg/ml BSA; 25 C; 10 min per concentration, then washed
Conditions: tags: His6-TwinStrep-SUMO cleaved; N-terminal SNAP kept (SNAP-Surface 488); label: 3' end held by stalled T7 RNA polymerase

Question: B1 was tested. Which Kd did it give?
Answer: 45 ± 14 nM

Question: Which Kd does the source give for B2 here?
Answer: 7.5 ± 0.5 nM

Question: For B3, which Kd is on record?
Answer: 13 ± 1.5 nM

Question: B4 was tested. Which Kd did it give?
Answer: 10.5 ± 0.9 nM

Question: How did the Kd turn out when B5 was run?
Answer: 37 ± 7 nM

Question: With B6 as the binder, how does the Kd read?
Answer: 12.5 ± 2 nM

Question: For B7, which Kd is on record?
Answer: 4.4 ± 0.8 nM

Question: With B8 as the binder, how does the Kd read?
Answer: 7.8 ± 1.8 nM

Question: Which Kd does the source give for B9 here?
Answer: 12.3 ± 1.1 nM

Question: Which Kd does the source give for B10 here?
Answer: 81 ± 19 nM

Question: With B11 as the binder, how does the Kd read?
Answer: 15.5 ± 2.4 nM

Question: With B12 as the binder, how does the Kd read?
Answer: 8.3 ± 0.8 nM

Question: With B13 as the binder, how does the Kd read?
Answer: 32 ± 4 nM

Question: Which Kd does the source give for B14 here?
Answer: 5.1 ± 0.5 nM

Question: With B15 as the binder, how does the Kd read?
Answer: 5.6 ± 1 nM

Question: For B16, which Kd is on record?
Answer: 6.2 ± 0.5 nM

Question: For B17, which Kd is on record?
Answer: 13.2 ± 2.4 nM

Question: How did the Kd turn out when B18 was run?
Answer: 8.5 ± 0.5 nM

Question: For B19, which Kd is on record?
Answer: 10.9 ± 2.5 nM

Question: With B20 as the binder, how does the Kd read?
Answer: 5.2 ± 1.2 nM

Question: With B21 as the binder, how does the Kd read?
Answer: 7.2 ± 0.4 nM

Question: B22 was tested. Which Kd did it give?
Answer: 11 ± 4 nM

Question: For B23, which Kd is on record?
Answer: 9.8 ± 0.7 nM

Question: B24 was tested. Which Kd did it give?
Answer: 8.2 ± 0.7 nM

Question: How did the Kd turn out when B25 was run?
Answer: 11 ± 0.7 nM

Question: How did the Kd turn out when B26 was run?
Answer: 11.8 ± 1.8 nM

Question: B27 was tested. Which Kd did it give?
Answer: 5.5 ± 0.5 nM

Question: For B28, which Kd is on record?
Answer: 5.14 ± 0.34 nM

Question: B29 was tested. Which Kd did it give?
Answer: 23 ± 7 nM

Question: Which Kd does the source give for B30 here?
Answer: 2.8 ± 0.5 nM

Question: How did the Kd turn out when B31 was run?
Answer: 4.8 ± 0.5 nM

Question: Which Kd does the source give for B32 here?
Answer: 4.9 ± 0.7 nM

Question: B33 was tested. Which Kd did it give?
Answer: 10.3 ± 1.8 nM

Question: How did the Kd turn out when B34 was run?
Answer: 5.31 ± 0.29 nM

Question: With B35 as the binder, how does the Kd read?
Answer: 6.5 ± 0.4 nM

Question: With B36 as the binder, how does the Kd read?
Answer: 11.7 ± 1 nM

Question: How did the Kd turn out when B37 was run?
Answer: 82 ± 11 nM

Question: With B38 as the binder, how does the Kd read?
Answer: 23.5 ± 2.9 nM
